In IntAct's records for PubMed 23260139:

Target: vinc_mouse Vcl (UniProt Q64727)
Sequence (Q64727 whole entry): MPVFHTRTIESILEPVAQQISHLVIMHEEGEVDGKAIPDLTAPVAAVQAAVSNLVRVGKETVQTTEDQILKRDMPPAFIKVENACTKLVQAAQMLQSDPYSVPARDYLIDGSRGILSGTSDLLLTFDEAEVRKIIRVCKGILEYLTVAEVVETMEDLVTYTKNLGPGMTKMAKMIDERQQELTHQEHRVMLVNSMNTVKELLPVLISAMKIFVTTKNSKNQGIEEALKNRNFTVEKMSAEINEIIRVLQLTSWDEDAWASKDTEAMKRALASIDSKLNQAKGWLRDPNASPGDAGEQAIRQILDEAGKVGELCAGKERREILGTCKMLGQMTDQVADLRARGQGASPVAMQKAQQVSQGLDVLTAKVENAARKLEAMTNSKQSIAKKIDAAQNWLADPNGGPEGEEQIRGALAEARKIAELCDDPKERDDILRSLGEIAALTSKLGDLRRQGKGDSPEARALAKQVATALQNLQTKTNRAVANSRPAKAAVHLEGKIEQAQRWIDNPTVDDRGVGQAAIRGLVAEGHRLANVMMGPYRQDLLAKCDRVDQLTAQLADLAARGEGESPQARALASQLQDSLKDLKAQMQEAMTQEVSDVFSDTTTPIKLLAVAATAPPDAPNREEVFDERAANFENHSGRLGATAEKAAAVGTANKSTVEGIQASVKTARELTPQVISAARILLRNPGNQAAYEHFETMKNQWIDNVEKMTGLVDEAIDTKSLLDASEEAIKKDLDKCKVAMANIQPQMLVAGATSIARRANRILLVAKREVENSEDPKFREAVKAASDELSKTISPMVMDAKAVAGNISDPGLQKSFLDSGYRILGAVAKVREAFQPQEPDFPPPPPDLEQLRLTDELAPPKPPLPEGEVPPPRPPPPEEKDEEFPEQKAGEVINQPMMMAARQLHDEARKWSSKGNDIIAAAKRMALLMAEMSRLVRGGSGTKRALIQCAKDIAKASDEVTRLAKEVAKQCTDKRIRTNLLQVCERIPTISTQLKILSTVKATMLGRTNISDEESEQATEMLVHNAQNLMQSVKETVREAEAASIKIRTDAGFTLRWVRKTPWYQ

Paxillin (Gallus gallus (Chicken)), P49024 E151Q, sequence (P49024 whole entry E151Q): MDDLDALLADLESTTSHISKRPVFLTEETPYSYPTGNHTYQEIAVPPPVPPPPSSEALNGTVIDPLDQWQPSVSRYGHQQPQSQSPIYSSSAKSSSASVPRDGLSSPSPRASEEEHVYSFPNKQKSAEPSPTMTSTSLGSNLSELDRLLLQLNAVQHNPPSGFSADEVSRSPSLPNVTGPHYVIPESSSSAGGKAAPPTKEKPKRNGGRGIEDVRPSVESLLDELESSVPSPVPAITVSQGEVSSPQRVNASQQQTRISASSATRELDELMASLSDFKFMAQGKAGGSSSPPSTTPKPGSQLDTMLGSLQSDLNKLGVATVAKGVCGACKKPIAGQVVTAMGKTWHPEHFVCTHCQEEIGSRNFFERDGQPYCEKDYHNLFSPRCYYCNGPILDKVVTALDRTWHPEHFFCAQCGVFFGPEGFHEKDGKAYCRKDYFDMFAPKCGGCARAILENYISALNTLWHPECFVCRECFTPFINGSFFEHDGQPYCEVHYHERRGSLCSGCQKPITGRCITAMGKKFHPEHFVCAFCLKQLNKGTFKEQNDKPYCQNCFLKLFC

effect of a mutation on the interaction: decreasing interaction strength
Substance: Paxillin (Gallus gallus (Chicken)), P49024 E151Q
